Earlier results as cited in publication PMC8895726.

Target: LAG-3:Fc (Mus musculus) (UniProt Q61790)
Test: BLI

UniProt Q61790, sequence (Q61790 24-442): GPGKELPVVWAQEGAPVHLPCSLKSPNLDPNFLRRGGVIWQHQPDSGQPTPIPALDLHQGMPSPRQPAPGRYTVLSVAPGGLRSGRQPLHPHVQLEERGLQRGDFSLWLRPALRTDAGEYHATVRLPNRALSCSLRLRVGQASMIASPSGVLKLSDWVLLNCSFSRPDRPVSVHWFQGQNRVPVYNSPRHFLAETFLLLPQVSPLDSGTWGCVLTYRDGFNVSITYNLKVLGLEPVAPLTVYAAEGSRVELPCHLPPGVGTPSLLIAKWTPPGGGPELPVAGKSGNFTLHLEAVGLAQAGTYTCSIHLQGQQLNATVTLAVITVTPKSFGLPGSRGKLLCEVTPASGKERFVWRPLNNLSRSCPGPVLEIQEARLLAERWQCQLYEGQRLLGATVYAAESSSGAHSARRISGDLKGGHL

- Kd: 1.5 nM
Substance: FGL1 (from UniProt Q71KU9)
